Experimental data reported in patent publication US20240101677A1 (Innovent, published 2024).

B1: 16A067 (bispecific antibody, human IgG1, kappa, L234A L235A)
heavy 1: not shown
heavy 2: EVQLVESGGGLVQPGRSLRLSCAASGFTFGDYAIHWVRQAPGKGLEWVSGISWDSSSIAYADSVKGRFTISRDNAKNSLYLQMNSLRAEDTAVYYCAKDSPVRDSFGSIAFDIWGQGTMVTVSSASTKGPSVFPLAPSSKSTSGGTAALGCLVKDYFPEPVTVSWNSGALTSGVHTFPAVLQSSGLYSLSSVVTVPSSSLGTQTYICNVNHKPSNTKVDKKVEPKSCDKTHTCPPCPAPEAAGGPSVFLFPPKPKDTLMISRTPEVTCVVVDVSHEDPEVKFNWYVDGVEVHNAKTKPREEQYNSTYRVVSVLTVLHQDWLNGKEYKCKVSNKALPAPIEKTISKAKGQPREPQVCTLPPSRDELTKNQVSLSCAVKGFYPSDIAVEWESNGQPENNYKTTPPVLDSDGSFFLVSKLTVDKSRWQQGNVFSCSVMHEALHNHYTQKSLSLSPGK
light: not shown
notes: 1+1 knob-into-hole format, sdAb-Fc arm and Fab-Fc arm, LALA; also called anti-CD16A/BCMA bispecific antibody (Y88A3 x ADI384-56)
B2: 16A069 (bispecific antibody, human IgG1, kappa, L234A L235A)
heavy 1: not shown
heavy 2: B1 heavy 2
light: not shown
notes: 1+1 knob-into-hole format, sdAb-Fc arm and Fab-Fc arm, LALA; also called anti-CD16A/BCMA bispecific antibody (Y100D6 x ADI384-56)
B3: 16A070 (bispecific antibody, human IgG1, kappa, L234A L235A)
heavy 1: not shown
heavy 2: B1 heavy 2
light: not shown
notes: 1+1 knob-into-hole format, sdAb-Fc arm and Fab-Fc arm, LALA; also called anti-CD16A/BCMA bispecific antibody (Y95H1 x ADI384-56)
B4: 16A068 (bispecific antibody, human IgG1, kappa, L234A L235A)
heavy 1: not shown
heavy 2: B1 heavy 2
light: not shown
notes: 1+1 knob-into-hole format, sdAb-Fc arm and Fab-Fc arm, LALA; also called anti-CD16A/BCMA bispecific antibody (Y99F6 x ADI384-56)
B5: Isotype-IgG1-Fc-LALA (antibody)
variable region (heavy or light not stated; listed first): EVRLLESGGGLVQPGGSLRLSCAASGFTFSNYAMGWVRQAPGKCLEWVSAISGSGGSTYYADSVKGRFTTSRDDSKNALYLQMNSLRAEDTAVYYCARGGPGWYAADVWGQGTTVTVSS
variable region (heavy or light not stated; listed second): DIQMTQSPSSLSASVGDRVTITCRASQSISSYLNWYQQKPGKAPKLLIYAASSLQSGVPSRFSGSGSGTDFTLTISSLQPEDFATYYCQQADLPAFAFGCGTKVEIK
notes: also called anti-Hen Egg Lysozyme (HEL) antibody; negative control

Experiments:
[1] = molecular target: T1, CD16A on human primary NK cells (human, UniProt P08637 17-254); assay: flow cytometry (MFI, PE-A) on human primary NK cells, donor SLB190071
T1 construct: whole, on cells; also called primary natural killer (NK) cells
Method: (§1) Human PBMC cells were thawed (Sailybio, SLB190084 & SLB190071), and NK cells were enriched and isolated using a human NK cell enrichment kit (Stemcell, 19055) and centrifuged at 400 g for 5 min. The supernatant was removed, and the cells were resuspended in PBS. After counting, the cells were adjusted to a density of 2×10⁶ cells/mL, and the cell suspension was added to a U-bottom 96-well plate at 100 μL/well. Then, the test antibody was added to make a final concentration of 100 nM, and subjected to a 6-fold dilution to obtain 10 gradients. The mixture was left to stand on ice for a reaction for 1 h. The mixture was centrifuged at 300 g for 5 min, and the supernatant was removed. The cells were washed once with PBS. The mixture was centrifuged at 300 g for 5 min, and PBS was removed. 100 μL of PE-anti-human Fc antibody (Southern Biotech, 2040-09) diluted at a ratio of 1:200 was added to each well. The mixture was incubated on ice for 30 min in the dark. The mixture was centrifuged at 400 g for 5 min, and the supernatant was removed. The cells were washed twice with PBS, and then resuspended in 100 μL of PBS. A fluorescence shift assay was performed by using a flow cytometer (BD, Facscelesta). […] The control antibody used in FIGS. 2A and 2B was the same as that in Example 5.
In this example, the binding of anti-CD16A/HER2 and anti-CD16A/BCMA bispecific antibodies (subjected to gradient dilution) of the present invention to primary NK cells was assayed by flow cytometry. The assay method was the same as that in Example 6.

[2] = molecular target: T2, human CD16A (type 158V) on GS-CHO cells (human, UniProt P08637 17-254); assay: flow cytometry (MFI, PE-anti-human Fc) on GS-CHO cells expressing human CD16A (type 158V)
T2 construct: whole, on cells; also called GS-CHO cells expressing human CD16A
Method: After counting, the cells were adjusted to a density of 2×10⁶ cells/mL, and the cell suspension was added to a U-bottom 96-well plate at 100 μL/well. […] The mixture was centrifuged at 300 g for 5 min, and the supernatant was removed. The cells were washed once with PBS. The mixture was centrifuged at 300 g for 5 min, and PBS was removed. 100 μL of PE-anti-human Fc antibody (Southern Biotech, 2040-09) diluted at a ratio of 1:200 was added to each well. The mixture was incubated on ice for 30 min in the dark. The mixture was centrifuged at 400 g for 5 min, and the supernatant was removed. The cells were washed twice with PBS, and then resuspended in 100 μL of PBS. A fluorescence shift assay was performed by using a flow cytometer (BD, Facscelesta).

[3] = molecular target: T1, CD16A on human primary NK cells; assay: flow cytometry (MFI, PE-anti-human Fc) on human primary NK cells, donor SLB190084
Method: as §1

T1 sequence (P08637 17-254): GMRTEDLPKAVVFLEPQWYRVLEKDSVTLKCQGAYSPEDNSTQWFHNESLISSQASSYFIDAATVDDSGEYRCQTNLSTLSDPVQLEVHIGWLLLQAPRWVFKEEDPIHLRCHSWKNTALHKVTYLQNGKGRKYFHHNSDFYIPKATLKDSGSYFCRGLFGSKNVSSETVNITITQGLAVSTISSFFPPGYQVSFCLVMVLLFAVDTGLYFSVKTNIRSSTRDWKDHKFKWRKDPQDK
T2 sequence (P08637 17-254 F176V): as the sequence (P08637 17-254) above, with F160V counted along it

Binder | EC50 [1] [nM] | binding result [2] | binding result [3]
B1 | 14.2 | – | –
B2 | 15.3 | – | –
B3 | 7.96 | – | –
B4 | 50.5 | – | –
B5 | – | no binding (tested: log 2.8 (about 600 nM)) | no binding (tested: log 2 (100 nM))
